Experimental data: PMC7955049, “ADAR1 RNA editing enzyme regulates R-loop formation and genome stability at telomeres in cancer cells” (Nature Communications, 2021)

Molecular target: T1, FLAG-ADAR1p110-WT (UniProt P55265-5 1-931)
T1 construct: ADAR1 (ADAR, DRADA), nuclear p110 isoform, wild type; also called F-ADAR1p110-WT; F-ADAR1p110; source: HEK293T, stably expressing (p3XFLAG-CMV-10 plasmid co-transfected with pPUR), in lysate of formaldehyde-fixed cells
T1 sequence (looked up): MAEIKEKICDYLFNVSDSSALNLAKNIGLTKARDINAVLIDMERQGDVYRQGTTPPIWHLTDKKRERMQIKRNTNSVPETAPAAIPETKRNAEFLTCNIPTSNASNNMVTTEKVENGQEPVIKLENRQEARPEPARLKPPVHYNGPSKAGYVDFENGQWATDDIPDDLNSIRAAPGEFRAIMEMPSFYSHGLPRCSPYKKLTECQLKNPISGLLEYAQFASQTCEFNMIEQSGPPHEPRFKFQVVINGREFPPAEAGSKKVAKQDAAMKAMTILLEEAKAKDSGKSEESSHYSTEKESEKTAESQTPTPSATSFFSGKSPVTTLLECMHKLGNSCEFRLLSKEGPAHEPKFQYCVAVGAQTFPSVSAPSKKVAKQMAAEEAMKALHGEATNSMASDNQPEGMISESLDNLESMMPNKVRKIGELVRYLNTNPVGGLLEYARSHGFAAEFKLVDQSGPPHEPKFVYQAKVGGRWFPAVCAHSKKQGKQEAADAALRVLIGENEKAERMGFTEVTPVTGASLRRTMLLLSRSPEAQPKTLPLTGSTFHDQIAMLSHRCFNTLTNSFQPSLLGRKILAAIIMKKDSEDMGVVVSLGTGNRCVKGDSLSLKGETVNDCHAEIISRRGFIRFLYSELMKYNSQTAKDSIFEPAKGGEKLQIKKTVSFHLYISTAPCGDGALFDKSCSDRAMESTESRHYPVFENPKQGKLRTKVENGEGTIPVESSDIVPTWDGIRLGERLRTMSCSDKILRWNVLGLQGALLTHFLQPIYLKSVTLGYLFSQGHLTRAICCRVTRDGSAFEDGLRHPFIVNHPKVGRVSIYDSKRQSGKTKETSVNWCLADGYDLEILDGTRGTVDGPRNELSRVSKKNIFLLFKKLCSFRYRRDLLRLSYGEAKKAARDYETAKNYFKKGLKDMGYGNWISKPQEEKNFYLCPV
Experiment: co-IP; cells expressing the FLAG-tagged bait fixed with 0.3% formaldehyde, lysed in co-IP buffer (50 mM Tris-HCl pH 7.6, 150 mM NaCl, 1 mM EDTA, 1% NP-40, 0.5% sodium deoxycholate, 0.1% SDS, RNasin Plus) and sonicated; anti-FLAG M2 magnetic beads overnight at 4 °C; immunoblot; for Fig. 10c HEK293T cells unsynchronized or synchronized at M phase (thymidine-nocodazole)
Settings: partners not purified

fold increase of the co-IP in M-phase synchronized against unsynchronized cells: > 3 fold
B1: RNase H2A (natural protein, human (endogenous in HEK293T), UniProt O75792 1-299, looked up)
chain: MDLSELERDNTGRCRLSSPVPAVCRKEPCVLGVDEAGRGPVLGPMVYAICYCPLPRLADLEALKVADSKTLLESERERLFAKMEDTDFVGWALDVLSPNLISTSMLGRVKYNLNSLSHDTATGLIQYALDQGVNVTQVFVDTVGMPETYQARLQQSFPGIEVTVKAKADALYPVVSAASICAKVARDQAVKKWQFVEKLQDLDTDYGSGYPNDPKTKAWLKEHVEPVFGFPQFVRFSWRTAQTILEKEAEDVIWEDSASENQEGLRKITSYFLNEGSQARPRSSHRYFLERGLESATSL
notes: RNase H2 subunit A (RNaseH2A, AGS4), endogenous; also called RNase H2 subunit H2A; endogenous RNase H2A; source: endogenous, HEK293T lysate
